{"source": "paper PMC3591310", "about": "“Characterization and Functional Analysis of Four Glutathione S-Transferases from the Migratory Locust, Locusta migratoria” (PLoS ONE, 2013)", "key": {"LmGSTt1 [1]": {"biological_target": "T1, LmGSTt1 (Locusta migratoria, UniProt F4YUJ7)", "T1 construct": "E. coli BL21 (DE3)", "T1 sequence (F4YUJ7 1-231)": "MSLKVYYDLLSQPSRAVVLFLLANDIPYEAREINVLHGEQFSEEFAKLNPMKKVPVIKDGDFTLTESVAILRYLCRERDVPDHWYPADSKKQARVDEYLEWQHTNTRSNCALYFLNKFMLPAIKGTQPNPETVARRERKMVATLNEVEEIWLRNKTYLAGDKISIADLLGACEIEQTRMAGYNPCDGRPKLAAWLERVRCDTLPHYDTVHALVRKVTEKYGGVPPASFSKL", "assay": "inhibition of CDNB-GSH conjugation, absorbance […] nm", "format": "biochemical", "conditions": "read-out: I50"}, "LmGSTu1 [2]": {"biological_target": "T2, LmGSTu1 (Locusta migratoria, UniProt F4YUI9)", "T2 construct": "E. coli BL21 (DE3)", "T2 sequence (F4YUI9 1-214)": "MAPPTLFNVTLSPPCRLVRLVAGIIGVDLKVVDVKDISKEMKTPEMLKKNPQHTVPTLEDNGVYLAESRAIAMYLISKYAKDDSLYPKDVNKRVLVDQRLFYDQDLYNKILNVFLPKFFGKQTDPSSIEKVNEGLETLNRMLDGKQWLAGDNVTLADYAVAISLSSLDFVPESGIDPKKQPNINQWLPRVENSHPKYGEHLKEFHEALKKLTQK", "assay": "inhibition of CDNB-GSH conjugation, absorbance […] nm", "format": "biochemical", "conditions": "read-out: I50"}, "LmGSTd1 [3]": {"biological_target": "T3, LmGSTd1 (Locusta migratoria, UniProt E7BTM5)", "T3 construct": "E. coli JM109", "T3 sequence (E7BTM5 1-218)": "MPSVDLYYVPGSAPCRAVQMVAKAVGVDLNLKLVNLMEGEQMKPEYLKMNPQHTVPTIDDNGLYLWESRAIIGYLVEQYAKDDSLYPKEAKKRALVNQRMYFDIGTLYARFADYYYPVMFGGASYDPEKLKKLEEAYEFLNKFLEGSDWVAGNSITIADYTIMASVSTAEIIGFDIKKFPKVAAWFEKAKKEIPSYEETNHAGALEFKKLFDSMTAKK", "assay": "inhibition of CDNB-GSH conjugation, absorbance […] nm", "format": "biochemical", "conditions": "read-out: I50"}, "LmGSTs5 [4]": {"biological_target": "T4, LmGSTs5 (Locusta migratoria, UniProt F4YUJ4)", "T4 construct": "E. coli JM109", "T4 sequence (F4YUJ4 1-202)": "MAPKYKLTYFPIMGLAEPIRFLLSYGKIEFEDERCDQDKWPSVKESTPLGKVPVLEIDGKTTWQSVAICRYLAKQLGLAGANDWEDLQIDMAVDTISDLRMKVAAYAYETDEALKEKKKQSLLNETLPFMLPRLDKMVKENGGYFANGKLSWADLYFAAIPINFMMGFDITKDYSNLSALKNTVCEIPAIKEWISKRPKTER", "assay": "inhibition of CDNB-GSH conjugation, absorbance […] nm", "format": "biochemical", "conditions": "read-out: I50"}, "LmGSTu1 [5]": {"biological_target": "T2, LmGSTu1", "assay": "GSH conjugation, absorbance […] nm, non-linear regression", "format": "biochemical", "conditions": "read-out: CDNB / Km; 5 mM GSH, pH 7.5, 28°C; apparent"}, "LmGSTd1 [6]": {"biological_target": "T3, LmGSTd1", "assay": "GSH conjugation, absorbance […] nm, non-linear regression", "format": "biochemical", "conditions": "read-out: CDNB / Km; 5 mM GSH, pH 7.5, 28°C; apparent"}, "LmGSTt1 [7]": {"biological_target": "T1, LmGSTt1", "assay": "GSH conjugation, absorbance […] nm, non-linear regression", "format": "biochemical", "conditions": "read-out: CDNB / Km; 5 mM GSH, pH 7.5, 28°C; apparent"}, "LmGSTs5 [8]": {"biological_target": "T4, LmGSTs5", "assay": "GSH conjugation, absorbance […] nm, non-linear regression", "format": "biochemical", "conditions": "read-out: CDNB / Km; 5 mM GSH, pH 7.5, 28°C; apparent"}, "purified protein [9]": {"substrate": "O=[N+]([O-])c1ccc(CCl)cc1", "assay": "purified protein", "conditions": "5 mM GSH, pH 7.5, 28°C, apparent"}, "purified protein [10]": {"substrate": "O=[N+]([O-])c1ccc(Cl)c(Cl)c1", "assay": "purified protein", "conditions": "5 mM GSH, pH 7.5, 28°C, apparent"}, "purified protein [11]": {"substrate": "O=[N+]([O-])c1ccc(CCl)cc1", "assay": "purified protein", "format": "biochemical, Locusta migratoria", "conditions": "5 mM GSH, pH 7.5, 28°C, apparent"}, "purified protein [12]": {"substrate": "O=[N+]([O-])c1ccc(Cl)c(Cl)c1", "assay": "purified protein", "format": "biochemical, Locusta migratoria", "conditions": "5 mM GSH, pH 7.5, 28°C, apparent"}, "[13]": {"conditions": "2 mM CDNB, 5 mM GSH, 0.1 M phosphate pH 7.5, 28°C"}}, "note": "Read-outs that look alike come from different tables or passages of the source.", "data": [{"molecule": "C=C(CC)C(=O)c1ccc(OCC(=O)O)c(Cl)c1Cl", "note": "[ethacrynic acid]", "values": [{"measurement": "IC50", "setting": "LmGSTt1 [1]", "value": 4.7, "unit": "µM"}, {"measurement": "IC50", "setting": "LmGSTu1 [2]", "value": 3.27, "unit": "µM"}, {"measurement": "IC50", "setting": "LmGSTd1 [3]", "value": 2.2, "unit": "µM"}, {"measurement": "IC50", "setting": "LmGSTs5 [4]", "value": 33.8, "unit": "µM"}]}, {"molecule": "O=[N+]([O-])c1ccc(Cl)c([N+](=O)[O-])c1", "note": "[CDNB, 1-chloro-2,4-dinitrobenzene]", "values": [{"measurement": "Km", "setting": "LmGSTu1 [5]", "value": "250 ± 25", "unit": "µM"}, {"measurement": "Km", "setting": "LmGSTd1 [6]", "value": "500 ± 25", "unit": "µM"}, {"measurement": "Km", "setting": "LmGSTt1 [7]", "value": "4730 ± 350", "unit": "µM"}, {"measurement": "Km", "setting": "LmGSTs5 [8]", "value": "1170 ± 290", "unit": "µM"}]}, {"molecule": "reactive blue", "values": [{"measurement": "IC50", "setting": "LmGSTt1 [1]; [13]", "value": 12.4, "unit": "µM"}, {"measurement": "IC50", "setting": "LmGSTu1 [2]; [13]", "value": 3.4, "unit": "µM"}, {"measurement": "IC50", "setting": "LmGSTd1 [3]; [13]", "value": 4.58, "unit": "µM"}, {"measurement": "IC50", "setting": "LmGSTs5 [4]; [13]", "value": 0.98, "unit": "µM"}]}, {"molecule": "LmGSTt1 (Locusta migratoria) (protein) MSLKVYYDLLSQPSRAVVLFLLANDIPYEAREINVLHGEQFSEEFAKLNPMKKVPVIKDGDFTLTESVAILRYLCRERDVPDHWYPADSKKQARVDEYLEWQHTNTRSNCALYFLNKFMLPAIKGTQPNPETVARRERKMVATLNEVEEIWLRNKTYLAGDKISIADLLGACEIEQTRMAGYNPCDGRPKLAAWLERVRCDTLPHYDTVHALVRKVTEKYGGVPPASFSKL", "values": [{"measurement": "Km", "setting": "purified protein [9]", "value": "7850 ± 1080", "unit": "µM"}, {"measurement": "Vmax", "setting": "purified protein [9]", "value": 0.00143, "unit": "µmol/min/mg"}]}, {"molecule": "LmGSTs5 (Locusta migratoria) (protein) MAPKYKLTYFPIMGLAEPIRFLLSYGKIEFEDERCDQDKWPSVKESTPLGKVPVLEIDGKTTWQSVAICRYLAKQLGLAGANDWEDLQIDMAVDTISDLRMKVAAYAYETDEALKEKKKQSLLNETLPFMLPRLDKMVKENGGYFANGKLSWADLYFAAIPINFMMGFDITKDYSNLSALKNTVCEIPAIKEWISKRPKTER", "values": [{"measurement": "Km", "setting": "purified protein [9]", "value": "470 ± 83", "unit": "µM"}, {"measurement": "Vmax", "setting": "purified protein [9]", "value": 0.156, "unit": "µmol/min/mg"}, {"measurement": "Km", "setting": "purified protein [10]", "value": "1730 ± 240", "unit": "µM"}, {"measurement": "Vmax", "setting": "purified protein [10]", "value": 0.00741, "unit": "µmol/min/mg"}]}, {"molecule": "LmGSTu1 (Locusta migratoria) (protein) MAPPTLFNVTLSPPCRLVRLVAGIIGVDLKVVDVKDISKEMKTPEMLKKNPQHTVPTLEDNGVYLAESRAIAMYLISKYAKDDSLYPKDVNKRVLVDQRLFYDQDLYNKILNVFLPKFFGKQTDPSSIEKVNEGLETLNRMLDGKQWLAGDNVTLADYAVAISLSSLDFVPESGIDPKKQPNINQWLPRVENSHPKYGEHLKEFHEALKKLTQK", "values": [{"measurement": "Km", "setting": "purified protein [9]", "value": "1580 ± 170", "unit": "µM"}, {"measurement": "Vmax", "setting": "purified protein [9]", "value": 0.00677, "unit": "µmol/min/mg"}, {"measurement": "Km", "setting": "purified protein [10]", "value": "730 ± 64", "unit": "µM"}, {"measurement": "Vmax", "setting": "purified protein [10]", "value": 0.00098, "unit": "µmol/min/mg"}]}, {"molecule": "LmGSTd1 (Locusta migratoria) (protein, E. coli JM109) MPSVDLYYVPGSAPCRAVQMVAKAVGVDLNLKLVNLMEGEQMKPEYLKMNPQHTVPTIDDNGLYLWESRAIIGYLVEQYAKDDSLYPKEAKKRALVNQRMYFDIGTLYARFADYYYPVMFGGASYDPEKLKKLEEAYEFLNKFLEGSDWVAGNSITIADYTIMASVSTAEIIGFDIKKFPKVAAWFEKAKKEIPSYEETNHAGALEFKKLFDSMTAKK", "values": [{"measurement": "Km", "setting": "purified protein [11]", "value": "6380 ± 570", "unit": "µM"}, {"measurement": "Vmax", "setting": "purified protein [11]", "value": 0.049, "unit": "µmol/min/mg"}, {"measurement": "Km", "setting": "purified protein [12]", "value": "1000 ± 87", "unit": "µM"}, {"measurement": "Vmax", "setting": "purified protein [12]", "value": 0.0004, "unit": "µmol/min/mg"}]}]}
